In the RNAGym collection of RNA variant scans (doi:10.1073/pnas.2313332121):

B1: TPR t1 (parent)
chain: GACCAAUCUGCCCUCAGAGCUCGAGAACAUCUUCGGAUGCAGAGGAGGCAGGCUUCGGUGGCGCGAUAGCGCCAACGUCCUCAACCUCCAAUGCAUCCCACCACAUGAUGAUGCCUGAAGAGCCUUGGUUUUUUG

Variants of: B1
Assay: polymerase ribozyme fitness, log enrichment relative to wild type (log ratio); higher = more active; in vitro selection for triplet polymerase activity
How it was run: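 Streptavidin-bead capture of gel-excised extended constructs, followed by RT-PCR, closed a single triplicate in vitro selection round. That round began by annealing PCR-built, transcribed mutant libraries of each subunit of a heterodimeric triplet polymerase ribozyme with a biotinylated primer, the partner subunit and triplets, then incubating them frozen at −7 °C. After Illumina sequencing of inputs and outputs, genotypes needed ≥10 input reads and ≥1 read per output. Fitness is the base-2 logarithm of genotype enrichment over wild-type enrichment, using inverse-variance-weighted replicate averages.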

Variant | polymerase ribozyme fitness (log ratio)
GACCAAUCUGCCCUCAGAGCUCGAGAACAUCUUCGGUUGCAGAGGAGGCAGGCUUCGGUGGCGCGAUAGCGCCAACGUCCUCAACCUCCAAUGCAUCCCACCACAUGAUGAUGCUUGAAGAGCCUUGGUUUUUUG | -0.707
GACCAAUCUGCCCUCAGAGCUCGAGAACAUCUUCGGUUGCAGAGGAGGCAGGCUUCGGUGGCGCGAUAGCGCCAACGUCCUCAACCUCCAAUGCAUCCCACCACAUGAUGAUGCAUGAAGAGCCUUGGUUUUUUG | -0.816
GACCAAUCUGCCCUCAGAGCUCGAGAACAUCUUCGGUUGCAGACGAGGCAGGCUUCGGUGGCGCGAUAGCGCCAACGUCCUCAACCUCCAAUGCAUCCCGCCAUAUGAUGAUGCAUGAAGAGCCUUGGUUUUUUG | -5.44
GACCAAUCUGCCCUCAGAGCUCGAGAACAUCUUCGGUUGCAGAGGAGGCAGGCUUCGGUGGCGCGAUAGCGCCAACGUCCUCAACAUCCAAUGCAUCCCACCACAUGAUGAUGCCUGAAGAGCCUUGGUUUUUUG | -0.797
GACCAAUCUGCCCUCAGAGCUCGAGAACAUCUUCGGUUGCAGAGGAGGCAGGCUUCGGUGGCGCGAUAGCGCCAACGUCCUCAACCUCCAAUGCAUCCCACCACAUGAUGAUGACUGAAGAGCCUUGGUUUUUUG | -0.828
GACCAAUCUGCCCUCAGAGCUCGAGAACAUCUUCGGUUGCAGAGGAGGCAGGCUUCGGUGGCCCGAUAGCGCCAACGUCCUCAACCUCCAAUGCAUCCCACCAUAUGAUGAUGCCCGAAGAGCCUUGGUUUUUUG | -1.47
GACCAAUCUGCCCUCAGAGCUCGAGAACAUCUUCGGUUGCAGAGGAGGCAGGCUUCCGUGGCGCGAUAGCGCCAACGUCCUCAAUCUCCAAUGCAUCCCACCACAUGAUGAUGCCUGAAGAGCCAUGGUUUUUUG | -1.95
GACCAAUCUGCCCUCAGAGCUCGAGAACAUCUUCGGUUGCAGAGGAGGCAGGCUUCGGCGGCGCGAUAGUGCCAACGUCCUCAACCUCCAAUGCAUCCCACCACAUGAUGAUGCCUGAAGAGCCUUGGUUUUUUG | -1.46
GACCAAUCUGCCCUCAGAGCUCGAGAACAUCUUCGGUUGCAGAGGAGGCAGGCUUCGGUGGCGCGAUAGCGCCAACGUCCUCAACCUCCAAUGCAUGCCACCACAUGAUGACGCCUGAAGAGCCUUGGUUUUUUG | -4.07
GACCAAUCUGCCCUCAGAGCUCGAGAACAUCUUCGGUUGCAGAGGAGGCAGGCUUCGGUGGCGCGAUAGCGCCAACGUCCUGAACCUCCAAUGCAUCCCACCACAUGAUGAUGCCUGAAGAGCCUUGGUUUUUUG | -0.955
GACCAAUCUGCCCUCAGAGCUCGAGAACAUCUUCGGUUGCAGAGGAGGCAGGCUUCGAUGGCGCGAUAGCGCCAACGUCCUCAACCUCCAAUGCAUCCCCCCACAUGAUGAUGUCUGAAGAGCCUUGGUUUUGUG | -4.99
GACCAAUCUGCCCUCAGAGCUCGAGAACAUCUUCGGUUGCAGAGGAGGCAGGCUUCAGUGGCGCGAUAGCGCCAACGUCCUCAACCUCGAAUGCAUCCCACCACAUGAUGAUGCCUGAAGAGCCUUGGUUUUUUG | -3.91
GACCAAUCUGCCCUCAGAGCUCGAGAACAUCUUCGGUUGCAGAGGAGGCAGGCUUCGGUGGCGCGAUACCGCCAACGUCCUCAACCUCCAAUGCAUCCCACCACAUGAUGAUGCCUGAAGAGCCUUGGUUUUUUG | -1.75
GACCAAUCUGCCCUCAGAGCUCGAGAACAUCUUCGGUUGCAGAGGAGGCAGGCUUCGGUAGCGCGAUAGCGCCAACGUCCUCAACCUCCAAUCCAUCCCACCACAUGAUGACGCGUGAAGAUCCUUGGUAUUUUG | -6.13
GACCAAUCUGCCCUCAGAGCUCGAGAACAUCUUCGGUUGCAGAGGAGGCAGCCUUCGGUGGCGCGAUAGCGCCAACGUCCUCAACCUCCAAUGCAUCCCACCACAUGAUGAUGCCUGAACAGCCUUGGUUUUUUG | 0.23
GACCAAUCUGCCCUCAGAGCUCGAGAACAUCUUCGGUUGCAGAGGAGUCAGGCUUCGGUAGCGCGAUAGCGCCAACGUCCUGAACCUCCAAUGCAUCCCACCACAUGAUGAUGCCUGAAGUGCCUUGGUUUUUUG | 1.39
GACCAAUCUGCCCUCAGAGCUCGAGAACAUCUUCGGUUGCAGAGGAGGCAGGCUUCGGUGGCCCGAUAGCGCCAACGUCCUCAACCUCCAAUGCCUCCCACCACAUGAUGAUGCCUGAAGAGCCUUGGUUUUUUG | -1.93
GACCAAUCUGCCCUCAGAGCUCGAGAACAUCUUCGGUUGCAGAGGAGGCAGGCUUCGGUGGCGCGAUAGCGUCAACGUCCUCGACUUCCAAUGCAUCCCACCACAUGAUGAUGCCUGAAGAGCCUUGGUUUUUUG | 0.0963
GACCAAUCUGCCCUCAGAGCUCGAGAACAUCUUCGGUUGCAGAGGAGGCAGGCUUCGGUGGCGCGAUAGCGCAAACGUCCUCAACCUCCAAUGCAUCCCACCACAUGAUGAUGCCUGAAGAGCCUUGGUUUUUUG | -0.559
GACCAAUCUGCCCUCAGAGCUCGAGAACAUCUUCGGUUGCAGAAGAGGCAGGCUUCGGUGGCGCGAUAGCGCCAACGUCCUCCACCUCCAAUGCAUCCCACCACAUGAUGAUGCCUGAACAGCCUUGGUGUUUUG | -1.38
GACCAAUCUGCCCUCAGAGCUCGAGAACAUCUUCGGUUGCAGAGGAGGCAGUCUUCGGUGGCGCGAUAGCGCCAACGUCCUCAACCUCCAAUGCAUCCCACCACAUGAUGAUGCCUGAAGAGCCUUGGUUUUUUG | -1.37

Variant | polymerase ribozyme fitness (log ratio)
GACCAAUCUGCCCUCAGAGCUCGAGAACAUCUUCGGUUGCAGAGGAGGCAGGCUUCGGUGGCGCGAUACCGCCAACGUCCUCAACCUCUAAUGCAUCCCACCACAUGAUGAUGCCUGAAGAGCCUUGGUUUUUUG | -2.29
GACCAAUCUGCCCUCAGAGCUCGAGAACAUCUUCGGUUGCAGAGGAGGCAGGCUUCGGUGGCGCGAUAGCGCCAACGUCCUCAACCUCCAAUGCAUCCCACCACAUGAUGAUGCCUGAACAGCCUUGGUUUUUUG | -0.129
GACCAAUCUGCCCUCAGAGCUCGAGAACAUCUUCGGUUGCAGAGGAGGCACGCUUCGGUGGCGCGAUAGCGCCAACGUCCUCAACCUACAAUGCAUCCCACCACAUGAUGAUGCCUGAAGAGCCUUGGUUUUUUG | -5.1
GACCAAUCUGCCCUCAGAGCUCGAGAACAUCUUCGGUUGCAGAGGAGGCAGGCAUCGGUGGCGCGAUAGCGCCAACGUCCUCAACCUCCAAUGCAUCCCACCACAUGAUGAUGCCUGAAGAGUGUUGGUUUUUUG | 1.44
GACCAAUCUGCCCUCAGAGCUCGAGAACAUCUUCGGUUUCAGAGGAGGCAGGCUUCGGUGGCGCGAUAGCGUCAACGUCCUCAACCUCCAAUGCAUCCCACCACAUGAUGAUGCCUGAAGAGCCGUGGUUUUUUG | -3.21
GACCAAUCUGCCCUCAGAGCUCGAGAACAUCUUCGGUUGCAGAGGAGACAGGCUUCGGUGGCGCGAUAGCGCCAACGUCCUCAACCUCCAAUGCAUUCCACCACAUGAUUAUGCCUGAAGAGCCCUGGUUUUUUG | -6.59
GACCAAUCUGCCCUCAGAGCUCGAGAACAUCUUCGGUUGCAGAGGAGGCAGGCUUCGGUGGCGCGAUAGCGCCAACGUCCUCAACCUCAAAUGCUUCCCACCACAUGAUGAUGCCUGAAGAGACUUGGUUUUUUG | -3
GACCAAUCUGCCCUCAGAGCUCGAGAACAUCUUCGGUUGCAGAGGAUGCAGGCUUCGGUGGCGCGAUAGCGCUAACGUCCUCAACCUCCAAUGCAUCCCAGCACAUGAUGAUGUCUGAAGAGCCUGGGUUUUUUG | -7.11
GACCAAUCUGCCCUCAGAGCUCGAGAACAUCUUCGGUUGCAGAAGAGGCAGUCUUCGGUGGCGCGAUAGCGCCAACGUACUCAACCUCCAAUGCAUCCCACCACAUGAUGAUUCCUGAAUAGCCUUGGUUUUUUG | -5.01
GACCAAUCUGCCCUCAGAGCUCGAGAACAUCUUCGGUUGCAGAGGAGGCAGGCUUCAGUGGCGCGCUAGCGCCAACGUCCUCAACCUCCAAUGCAUCCCACCACAUGAUGAUGCCUGAAGAGCCUUGGUUUUUUG | -4.07
GACCAAUCUGCCCUCAGAGCUCGAGAACAUCUUCGGUUGCAGAGGAGGCAGGCUUCGGUGGCGCGAUAGCGCCAACUUCCUCAACCUCCAAUGCAUCCCACCACAUGAUGAUGCCUGAAGAGCCUUGGUUUUUUG | -0.679
GACCAAUCUGCCCUCAGAGCUCGAGAACAUCUUCGGUUGCAGAGGAGGCAGGCUUCGGUGGCGCGAUAGCGCCAACGUCCUCAACCUCCAAUUCAUCCCACCACAUGAUGAUGCCUGAAGAGCCUUGGUUUUUUG | -1.86
GACCAAUCUGCCCUCAGAGCUCGAGAACAUCUUCGGUUGCAGAGGAGGCAGGCUUCGGUGGCGCGAUAGCGUCAUCGGCCUCAACCUCCAAUGCAUCCCACCACAUGAUGAUGCCUGAAGAGCAUUGGUUUUUUG | 1.33
GACCAAUCUGCCCUCAGAGCUCGAGAACAUCUUCGGUUGCAGAGGAGGCAGGCUUCGGUGUCGCGAUAGCGCCAACGUCCUCAACCUCCAAUGCAUCCCACCACAUGAUGAUGCCUGAAGAGCCUUGGUUUUUUG | -0.28
GACCAAUCUGCCCUCAGAGCUCGAGAACAUCUUCGGUUGCAGAGGAGGCAGGCUUCGGUGCCGCGAUAGCGCCAACGUCCUCAACCUCCAAUGCAUCCCACCACAUGAUGAUGCCUGAAGAGCCUUGGUUUUUUG | -1.86
GACCAAUCUGCCCUCAGAGCUCGAGAACAUCUUCGGUUGCAGAGGAGGCAGGCUUCGGUGGCGCGAUAGCGCCAACGUCGUCAACCUCCAAUGCAUCCCACCACAUGAUGAUGCCUGAAGAGCCUUGGUUUUUUG | -5.42
GACCAAUCUGCCCUCAGAGCUCGAGAACAUCUUCGGUUGCAGAGGAGGCAGGCUUCGGUGGCGCGAUAGCACCAACGUCCUCAACCUCCAAUGCAUCCCACCACAUGAUGAUGCCUGAAGAGCCUUGGUUUUUUG | -1.12
GACCAAUCUGCCCUCAGAGCUCGAGAACAUCUUCGGUUGCAGAGGAGGCAGGCUUCGGUGGCGCGAUAGCGCCAACGUCCUCAACUUCCAAUGCAUCCCACCACGUGAUGAUGCCUGAAGCGCCUUGGUUUCUUG | -1.31
GACCAAUCUGCCCUCAGAGCUCGAGAACAUCUUCGGUUGCAGAGGAGGCAGGCUUCGGUGGCCCGAUUGCGCCAACGACCUCAACCUCCAAUGCAUCCCACCACAAGAUGAUGCCUGAAGAGCCUUGGUUUUUUG | -5.67
GACCAAUCUGCCCUCAGAGCUCGAGAACAUCUUCGGUUGCAGAGGAGGCAGGCUUCGGUGGCGCGAUAGCGCCAACGUCCUCAACCUCCAAUGCAUUCCACCACAUGAUGAUGCCUGAAGAGCCUUGGUUUUUUG | -2.15
GACCAAUCUGCCCUCAGAGCUCGAGAACAUCUUCGGUUGCAGAGGAGUCAGGCUACGGUGGCGCGAUAGCGCCAACGUCCUCAACCUCCAAUGCAUCCCACCACAUGAUGAUGCCUGAAGAGCCUUGGUUUUUUG | -1.56
